Experimental data published in article doi:10.1101/444554 (bioRxiv, 2018).

Columns and labels:
crystal structure = target: the molecule itself; test: crystal structure
non-reducing SDS-PAGE = target: the molecule itself; test: non-reducing SDS-PAGE
SEC-MALS = target: the molecule itself; test: SEC-MALS

B1: mouse 4-1BB ligand ectodomain (amino acids 140-309) without purification tag, co-expressed with m4-1BB for the complex structure (domain or fragment, UniProt P41274 140-309, looked up)
chain: TTQQGSPVFAKLLAKNQASLCNTTLNWHSQDGAGSSYLSQGLRYEEDKKELVVDSPGLYYVFLELKLSPTFTNTGHKVQGWVSLVLQAKPQVDDFDNLALTVELFPCSMENKLVDRSWSQLLLLKAGHRLSVGLRAYLHGAQDAYRDWELSYPNTTSFGLFLVKPDNPWE
modifications: disulfide linked dimer
For B1, the “stoichiometry N” value (crystal structure) was 2.

B2: mouse 4-1BB ligand ectodomain (amino acids 140-309) S256F (domain or fragment, UniProt P41274 140-309, looked up)
chain: TTQQGSPVFAKLLAKNQASLCNTTLNWHSQDGAGSSYLSQGLRYEEDKKELVVDSPGLYYVFLELKLSPTFTNTGHKVQGWVSLVLQAKPQVDDFDNLALTVELFPCSMENKLVDRFWSQLLLLKAGHRLSVGLRAYLHGAQDAYRDWELSYPNTTSFGLFLVKPDNPWE
modifications: inter-molecular disulfide through Cys 246
In the case of B2, the “stoichiometry N” value (non-reducing SDS-PAGE) is reported as 2.

B3: mouse 4-1BB ligand ectodomain (amino acids 140-309) C246S (domain or fragment, UniProt P41274 140-309, looked up)
chain: TTQQGSPVFAKLLAKNQASLCNTTLNWHSQDGAGSSYLSQGLRYEEDKKELVVDSPGLYYVFLELKLSPTFTNTGHKVQGWVSLVLQAKPQVDDFDNLALTVELFPSSMENKLVDRSWSQLLLLKAGHRLSVGLRAYLHGAQDAYRDWELSYPNTTSFGLFLVKPDNPWE
For B3, the “stoichiometry N” value (SEC-MALS) was 2.
